Source: patent publication US20200200749A1

B1: EBOV62 (antibody, V domains shown)
VH: EVQLVESGGGLVQPGGSLRLSCAASGFTFSSYWMSWVRQAPGKGLEWVANIKQDGSAKYYVDSVKGRFTISRDNAKNSLYLQMNSLRAEDTAVYYCARDGLLGISDLLYPIYYFDYWGQGTLVTVSS
VL: DIVMTQSPSSLSASVGDRVTITCRASQNIGSYLNWYQQKPGKAPNLLMYAASSLQSGVPSRFSGSGSGTDFTLTITSLQPEDFATYYCQQSYSIPRTFGQGTQLEIK
B2: BDBV223 (antibody, V domains shown)
VH: QVQLQQWGAGLLKPSETLSLTCAVYGGSFTTTYWNWIRQPPGKGLEWIGEVNYSGNANYNPSLKGRVAISVDTSKNQFSLRLNSVTAADTAIYYCTSRIRSHIAYSWKGDVWGKGTTVTVSS
VL: EIVMTQSPGTLSLSPGERATLSCRASQSVPRNYIGWFQQKPGQAPRLLIYGASSRAAGFPDRFSGSGSGTDFTLTITRLEPEDFAMYYCHQYDRLPYTFGQGTKLEIK

Experiments:
[1] = molecular target: BDBV GP (recombinant, full-length extracellular domain) (BDBV (Bundibugyo ebolavirus)); test: ELISA, GP coated on plate, mAb serially diluted
[2] = molecular target: BDBV GP on virus (BDBV (Bundibugyo ebolavirus)); test: cell-based or functional assay

Row | Binder | EC50 [1] [µg/mL] | IC50, neutralization of BDBV [2] [µg/mL]
1 | B1 | 508 | –
2 | B2 | – | 0.005
